Experimental data: patent US20260117274A1, “ORTHOGONALLY CROSSLINKED PROTEINS, METHODS OF MAKING, AND USES THEREOF” (The Research Foundation for The State University of New York, priority 2022, published 2026)

What was measured:
[1] = Intramolecular (inter-strand) crosslinking yield of nanobody/monobodies by mass spectrometry; details: UAA-encoded monobodies, MS characterization (Table 5)
Source text: To probe whether CATK-1 is suitable for inter-strand cross-linking in proteins containing the disulfide bond, we selected a small protein called nanobody NB1, a prototypical single-chain VHH antibody that binds specifically to GFP protein. Based on NB1 structure, there is one disulfide bond formed between Cys-24 and Cys-98, close to a proposed orthogonal crosslinking site at Val-4 and Tyr-106 (FIG. 5a, left). To test orthogonal crosslinking, we placed CATK-1 at Val-4 position to target Tyr-106 located 5.6 Å away on the opposing strand. The BocK- and CATK-1-encoded NB1 were successfully expressed at yields of 14.3 mg L^−1 and 3.5 mg L^−1, respectively (FIG. 5b, left). […] Separately, we also examined the utility of CATK-1 in effecting intramolecular crosslinking in an antibody mimic called monobody. Due to their lack of cysteine residues, small size (˜10 kDa), and evolvable binding affinity and specificity, monobodies represent an ideal protein scaffold for targeting protein-protein interactions in the cytosols of mammalian cells. However, monobodies are cell impermeable, severely limiting their potential. One strategy to potentially overcome this limitation is to combine protein surface supercharging with orthogonal crosslinking to increase stability in the endosomes and thus improve cytosolic delivery. To this end, we designed an overall +10 charged monobody NSa1, termed NSa1(+10), using the Supercharge protocol on ROSIE Rosetta Online Server and added an amber codon at Ala-13 position. Based on the NSa1 structure, A13CATK-1 is well-positioned to react with the proximal Tyr-92 on the opposing strand at C-terminus (FIG. 5a, right). Accordingly, the wild-type and NSa1(+10) mutant proteins encoding CATK-1 or BocK were expressed and purified in good yields (4.1-6.9 mg L^1; FIG. 5b, right). […] The crosslink-containing fragment was identified by LC/MS after trypsin digestion (FIG. 21).
To assess if BeLaK is suitable for orthogonal crosslinking of domain antibodies, we selected NSa1, a monobody-based SHP2 inhibitor, and placed BeLaK at position-13 of the N-terminal β-strand. A panel of supercharged NSa1 mutants carrying overall charges of +6, +8, +11, and +18, respectively, were designed using Supercharge protocol on ROSIE Rosetta Online Server with native NSa1 (˜2 charge) as a template. […] Thus, the supercharged monobodies encoding either BeLaK or BocK were expressed in good yields (2.2˜7.2 mg L^−1; FIG. 42). […] Furthermore, as the positive charge increases, the mobility decreases, likely due to reduced overall negative charge after association with the SDS molecules. MS analysis further confirmed the identities of the supercharged NSa1 mutants (FIG. 34c). Since the unreacted BeLaK-encoded monobodies share the same mass as the crosslinked ones, we treated the purified monobodies with excess β-mercapto-ethanol for 7 days, which accelerates the hydrolysis of the unreacted β-lactam and in turn adds +18 Da to protein mass, and monitored the intact mass change. Using this method, we determined orthogonal crosslinking yields to range from 5% for native NSa1 to more than 50% for +8/+11/+18 mutants (FIG. 42). We attribute the higher yields to the increased conformational dynamics, which promotes proximity-driven crosslinking reactions. The crosslinking sites in +11 and +18 mutants were mapped to Lys-21 and Lys-19, respectively, residues on the nearby β-strand, based on the identified fragment masses after trypsin digestion (FIG. 34d, FIG. 50).
Crosslinking yield determination of BeLaK-encoded NSa1 variants. To quantify the extent of crosslinking, β-mercaptoethanol (20 mM) was added at a final concentration of 2.58 mM (100 equiv, 3 μL) to a solution of purified NSa1 variants (25 μM, 30 μL) in elution buffer (50 mM Na2HPO4, pH=7.4, 300 mM NaCl, 250 mM imidazole). The mixture was incubated at 37° C. overnight. Afterwards, the mixture was removed from the incubator and allowed to incubate at 25° C. for 1 week.

HeLa cells = assay: Flow cytometry uptake of AF488-labeled NSa1(+10) proteins in HeLa cells; type: cell-based; details: 4 hours
Method: To assess cellular uptake of the supercharged NSa1 proteins, we first removed the N-terminal His-tag after TEV cleavage to obtain two intact NSa1(+10) mutants encoding either BocK or CATK-1. We then reacted the mutants with Alexa Fluor 488-NHS modest labeling yield of 20-23% (FIG. 22). We then carried out a flow cytometry assay to quantify the uptake efficiency of the NSa1(+10) mutants. In brief, HeLa cells were treated with 100 or 500 nM of NSa1(+10) proteins at 37° C. for 4 hours. After washing cells three times with PBS containing 20 U/mL heparin to remove the surface-bound proteins, cells were collected and analyzed by flow cytometry. We observed significant monobody uptake when protein concentrations reached 500 nM. […] Since the kinetically stable protein folds show enhanced proteolytic resistance due to their rigid conformations with limited local openings, we assessed the effect of orthogonal crosslinking on proteolytic stability of the monobody. Thus, we incubated the CATK-1-crosslinked NSa1(+10) with cathepsin B ¾ an enzyme responsible for the degradation of protein cargoes in the endosomes ¾ and monitored monobody stability by mass spectrometry.
Fluorescent labeling of NSa1 and flow cytometry. After TEV-cleavage and further cation exchange chromatography, the purified NSa1 proteins were buffer exchanged into the basic buffer (100 mM Pi, 450 mM NaCl, pH 8.3), and then incubated with AF488-NHS (Lumiprobe) (2-fold molar, optimized to afford non-labeled and mono-labeled protein as major species) at 4° C. with gentle shaking in darkness overnight. Then, thorough dialysis was employed to remove excess dye and protein concentrations were determined by Nanodrop (eNSa1=28880 M^−1 cm^−1, eNSa1-plus10=27390 M^−1 cm^−1; CF280=0.11; Aprotein=A280−A493*CF280).
HeLa cells were seeded in a 48-well plate and grown in DMEM supplemented with 10% FBS and 10 μg/mL Gentamycin (Gibco) and 2 μg/mL Plasmocin at 37° C., 5% CO2 until ˜80% confluency. Cells were washed twice with pre-warmed PBS before switching to serum-free DMEM with Alexa-488 labeled protein. Cells were incubated at 37° C. for 4 hours. The cells were washed three times with PBS (including 20 U/mL heparin), trypsinized, and collected with 1.5 mL tubes. After brief centrifugation (400 g, 5 min) at room temperature, cells were collected and resuspended in PBS for flow cytometry analysis.

B1: 12VC1(+8)-A13BeLaK-Y92K: monobody 12VC1(+8) encoding BeLaK; SEQ. ID. NO: 2 (protein)
chain: MGSSHHHHHHSSGTENLYFQGVSSVPTKLKVVAXTPTSLLISWDAPAVTVFFYVITYGETGHGVGAFKAFKVPGSKSTATISGLKPGVDYTITVYARGYSKKGPYKPSPISINKRT
modifications: BeLaK non-natural residue at position 13; VARIANT 34 X is Ne-(tert-butoxycarbonyl) lysine or N6-(2-Oxoazetidine-1-carbonyl)-L-lysine
notes: monobody 12VC1(+8) encoding BeLaK; ID; NO: 2
X-linking yield [1]: 86%

B2: 12VC1(+10)-A13BeLaK-Y92K: monobody 12VC1(+10) encoding BeLaK; SEQ. ID. NO: 3 (protein)
chain: MGSSHHHHHHSSGTENLYFQGVSKVPTKLEVVAXTPTSLLIKWDAPAVTVKFYVITYGEKGHGVGAFQAFKVPGSKRTATIKGLKPGVDYTITVYARGYSKQGPYKPSPISINKRT
modifications: BeLaK non-natural residue at position 13; VARIANT 34 X is Ne-(tert-butoxycarbonyl) lysine or N6-(2-Oxoazetidine-1-carbonyl)-L-lysine
notes: monobody 12VC1(+10) encoding BeLaK; ID; NO: 3
X-linking yield [1]: 83%

B3: NSa1(+10)-A13BocK: non-crosslinked +10 charged monobody NSa1 encoding BocK at position 13; SEQ ID NO: 50 (protein)
chain: MGSSHHHHHHSSGTENLYFQGVSSKPTKLRVVRXTPTSLKIKWDAPAKTVDYYVITYGETGRGGYAWQRFEVPGSKRTATIKGLKPGVDYTITVYAGYKGYPTYYSSPISINYRT
modifications: BocK non-natural residue at position 13; VARIANT 34 X is 1/2-carboxy-4-aryltriazole lysine or Ne-(tert-butoxycarbonyl) lysine
percentage of fluorescent cells (HeLa cells; 500 nM): 13.6%
MFI(R-1) Trial 1 (HeLa cells; Protein 500 nM, 37°C, Trial 1): 6726.24
MFI(R-1) Trial 2 (HeLa cells; Protein 500 nM, 37°C, Trial 2): 6507.23
MFI(R-1) Trial 3 (HeLa cells; Protein 500 nM, 37°C, Trial 3): 6855.84

B4: NSa1(+5)-A13BeLaK: supercharged NSa1 monobody encoding BeLaK; SEQ. ID. NO: 6 (protein)
chain: MGSSHHHHHHSSGTENLYFQGVSSKPTKLRVVRXTPTSLKISWDAPAVTVDYYVITYGEKGSGGYAWQEFEVPGSKRTATISGLKPGVDYTITVYAGYKGYPTYYSSPISINYRT
modifications: BeLaK non-natural residue at position 13; MOD_RES 34 X is N6-(2-Oxoazetidine-1-carbonyl)-L-lysine
notes: supercharged NSa1 monobody encoding BeLaK; ID; NO: 6
X-linking yield [1]: 43%

B5: NSa1(+5)-A13BeLaK-Y92K-C1: supercharged NSa1 monobody encoding BeLaK; SEQ. ID. NO: 9 (protein)
chain: MGSSHHHHHHSSGTENLYFQGCVSSKPTKLRVVRXTPTSLKISWDAPAVTVDYYVITYGEKGSGGYAWQEFEVPGSKRTATISGLKPGVDYTITVYAGYKGYPTYYSSPISINKRT
modifications: BeLaK at position 13; N-terminal Cys; MOD_RES 35 X is N6-(2-Oxoazetidine-1-carbonyl)-L-lysine
notes: supercharged NSa1 monobody encoding BeLaK; ID; NO: 9
X-linking yield [1]: 25%

B6: NSa1(+7)-A13BeLaK-Y92K-C1: supercharged NSa1 monobody encoding BeLaK; SEQ. ID. NO: 12 (protein)
chain: MGSSHHHHHHSSGTENLYFQGCVSSKPTKLRVVRXTPTSLKIKWDAPAVTVDYYVITYGEKGRGGYAWQEFEVPGSKRTATISGLKPGVDYTITVYAGYKGYPTYYSSPISINKRT
modifications: BeLaK at position 13; N-terminal Cys; MOD_RES 35 X is N6-(2-Oxoazetidine-1-carbonyl)-L-lysine
notes: supercharged NSa1 monobody encoding BeLaK; ID; NO: 12
X-linking yield [1]: 60%

B7: NSa1(+10)-A13BeLaK-Y92K-C1: supercharged NSa1 monobody encoding BeLaK; SEQ. ID. NO: 16 (protein)
chain: MGSSHHHHHHSSGTENLYFQGCVSSKPTKLRVVRXTPTSLKIKWDAPAKTVDYYVITYGETGRGGYAWQRFEVPGSKRTATIKGLKPGVDYTITVYAGYKGYPTYYSSPISINKRT
modifications: BeLaK at position 13; N-terminal Cys; MOD_RES 35 X is N6-(2-Oxoazetidine-1-carbonyl)-L-lysine
notes: supercharged NSa1 monobody encoding BeLaK; ID; NO: 16
X-linking yield [1]: 100%

B8: NSa1(+17)-A13BeLaK-Y92K-C1: supercharged NSa1 monobody encoding BeLaK; SEQ. ID. NO: 20 (protein)
chain: MGSSHHHHHHSSGTENLYFQGCVKSKPTKLRVVRXTPTSLKISWKAPKKTVDYYVITYGKTGSGGYAWQRFRVPGSKRTAKIKGLKPGVDYTITVYAGYKGYPTYYSSPISINKRT
modifications: BeLaK at position 13; N-terminal Cys; MOD_RES 35 X is N6-(2-Oxoazetidine-1-carbonyl)-L-lysine
notes: supercharged NSa1 monobody encoding BeLaK; ID; NO: 20
X-linking yield [1]: 87%
